Laboratory results from IntAct's records for PubMed 17964261.

B1: Proline-serine-threonine phosphatase-interacting protein 1 (Homo sapiens), O43586 (parent)
chain: MMPQLQFKDAFWCRDFTAHTGYEVLLQRLLDGRKMCKDMEELLRQRAQAEERYGKELVQIARKAGGQTEINSLRASFDSLKQQMENVGSSHIQLALTLREELRSLEEFRERQKEQRKKYEAVMDRVQKSKLSLYKKAMESKKTYEQKCRDADDAEQAFERISANGHQKQVEKSQNKARQCKDSATEAERVYRQSIAQLEKVRAEWEQEHRTTCEAFQLQEFDRLTILRNALWVHSNQLSMQCVKDDELYEEVRLTLEGCSIDADIDSFIQAKSTGTEPPAPVPYQNYYDREVTPLTSSPGIQPSCGMIKRFSGLLHGSPKTTSLAASAASTETLTPTPERNEGVYTAIAVQEIQGNPASPAQEYRALYDYTAQNPDELDLSAGDILEVILEGEDGWWTVERNGQRGFVPGSYLEKL
partner: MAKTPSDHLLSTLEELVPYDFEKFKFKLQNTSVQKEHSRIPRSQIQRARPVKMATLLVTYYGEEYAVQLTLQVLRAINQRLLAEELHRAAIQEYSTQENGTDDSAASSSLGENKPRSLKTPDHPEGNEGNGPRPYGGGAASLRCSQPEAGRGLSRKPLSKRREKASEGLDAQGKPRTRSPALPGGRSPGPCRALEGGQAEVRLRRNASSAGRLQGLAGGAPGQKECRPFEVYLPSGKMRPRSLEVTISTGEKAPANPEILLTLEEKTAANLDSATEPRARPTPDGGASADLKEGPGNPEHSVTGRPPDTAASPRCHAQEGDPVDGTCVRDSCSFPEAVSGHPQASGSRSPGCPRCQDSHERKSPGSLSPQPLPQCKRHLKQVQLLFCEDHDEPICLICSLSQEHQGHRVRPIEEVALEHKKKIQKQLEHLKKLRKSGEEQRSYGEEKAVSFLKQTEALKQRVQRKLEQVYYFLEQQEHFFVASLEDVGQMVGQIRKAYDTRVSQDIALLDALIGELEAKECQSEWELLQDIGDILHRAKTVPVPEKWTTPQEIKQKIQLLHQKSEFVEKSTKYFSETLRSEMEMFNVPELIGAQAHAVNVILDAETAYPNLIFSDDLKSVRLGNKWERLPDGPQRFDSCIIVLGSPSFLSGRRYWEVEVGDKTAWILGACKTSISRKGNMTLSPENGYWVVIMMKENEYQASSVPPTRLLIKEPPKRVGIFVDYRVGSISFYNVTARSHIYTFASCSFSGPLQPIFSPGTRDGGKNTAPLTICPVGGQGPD

Variants of: B1
Conditions: with mefv_human MEFV

effect of a mutation on the interaction	Variant
increasing interaction strength	A230T
increasing interaction strength	E250Q
